Results on 2 molecules are retold here after patent US20250195629A1, “SITE-SPECIFIC BRAIN THERAPEUTICS” (William Marsh Rice University, priority 2023, published 2025).

For one data set, the system named is mice. Kind of data set: Weekly repeated RAID open field test over three weeks. Format: in vivo, mouse. The source says:
FIG. 15 includes data related to protein delivery and behavioral testing protocol repeated weekly over a course of three weeks. FIG. 15a illustrates weekly RAID-induced behavioral modulation including a first counterclockwise rotations graph measured in the open field test before and after administration of L-DOPA. FIG. 15b illustrates weekly RAID-induced behavioral modulation including a second counterclockwise rotations graph measured in the open field test before and after administration of L-DOPA. FIG. 15c illustrates weekly RAID-induced behavioral modulation including a first clockwise rotations graph measured in the open field test before and after administration of L-DOPA. FIG. 15d illustrates weekly RAID-induced behavioral modulation including a second clockwise rotations graph measured in the open field test before and after administration of L-DOPA. Data is presented as mean±s.e.m. n=7 mice for FUS alone group and n=14, 13, and 11 mice for the FUS+mAADC-IKVAV (SEQ ID NO: 23) group in weeks 1, 2, and 3, respectively; *P<0.05, **P<0.01, ns (not significant), using Two-way ANOVA with Sidak's multiple comparison test.
Locomotor behavior test—Two groups of mice underwent FUS-BBBO targeting two sites at left striatum immediately after intravenous injection of recombinant protein AADC-IKVAV (SEQ ID NO: 23) (n=14 mice for FUS+AADC-IKVAV group, 20 mg/mL, 250 mg/kg) or equivalent volume of PBS buffer (n=11 mice for FUS alone group). Another group without FUS-BBBO procedure served as wild type control (n=12 mice for WT group). After 46 h, the first session of behavioral test was performed in a custom-made non-transparent open field box (30.5 cm×30.5 cm) as a baseline. Each mouse was individually placed into the apparatus center with a light intensity and background noise at ˜320 lux and 46 dB (400 Hz peak), respectively. After a habituation period of 5 min, the locomotor activity of a freely-moving mouse was recorded for 15 min by a video tracking system (Stoelting Co.) consisting of an overhead camera connected to a computer with Any-Maze software. […]

Another data set concerns brain tissue. Description: Safety analysis, hematoxylin staining of brain sections. As to conditions: RAID approach, FUS+AADC-IKVAV+L-DOPA, behavior study. The data set is classed as in vivo, mouse. As for the experimental part:
Additionally, the brain sections stained for GFAP were imaged using a 4× objective in DAPI (nuclei) and far-red (GFAP) channels. Three square areas were then selected in both the left and right striatum respectively, each with 3×3 binning, for imaging with a 40× objective to quantify GFAP+ cells. Safety analysis—To investigate potential lesions resulting from the use of FUS-BBBO in the RAID protocol, hematoxylin staining was performed (n=11 mice for FUS alone+L-DOPA group and n=14 mice for FUS+AADC-IKVAV (SEQ ID NO: 23)+L-DOPA group) on the adjacent sections of each representative section used for c-Fos staining, which was associated with behavior analysis as shown in FIG. 11. Hematoxylin staining was conducted according to the following steps: […] (5) This was followed by a 3-minute wash in H2O; (6) A 20-second soak in Bluing Reagent (H&E Staining Kit, Abcam ab245880) was carried out; (7) Another 3-minute wash in H2O followed; […]

The subject of a further data set is GFAP+ astrocytes. Kind of data set: Safety analysis, GFAP staining for astrocytic activation. The data set is classed as in vivo, mouse. The following applies: RAID treatment, FUS+AADC-IKVAV. An excerpt:
Additionally, the brain sections stained for GFAP were imaged using a 4× objective in DAPI (nuclei) and far-red (GFAP) channels. Three square areas were then selected in both the left and right striatum respectively, each with 3×3 binning, for imaging with a 40× objective to quantify GFAP+ cells.
In FIG. 7, we applied the following brightness (white) thresholds for the corresponding channels: 6045 (DAPI, nuclei, not shown), 15,000 (Cy3, D1R), 16,000 (green, D2R), and 6045 (far-red, c-Fos), with a gamma value of 1. In FIG. 11, we applied a Brightness (White) threshold of 6045 for both DAPI (nuclei, not shown) and far-red (c-Fos) channels, with a Gamma value of 1. The images were then overlayed, and the c-Fos+ cells were manually counted. Similarly, the GFAP+ cells were manually counted, as shown in FIG. 15c and FIG. 17, by applying a Brightness (White) threshold of 5686 and a Gamma value of 1 for both the DAPI (nuclei) and far-red (GFAP, purple) channels.
Adjacent sections were stained separately with an anti-GFAP antibody to examine astrocytic activation. […]

Data set [1] can be described thus: Mouse body weight analysis. The data set is classed as in vivo. The following applies: day 0 vs 2 days after injection, RLuc8.6 100 mg/kg, AADC-IKVAV 250 mg/kg. The procedure:
To assess the potential impact of the RAID approach on the body weight of the mice involved in behavior analysis (n=11 mice for the FUS alone+L-DOPA group and n=14 mice for the FUS+AADC-IKVAV (SEQ ID NO: 23)+L-DOPA group), their body weight was recorded on a daily basis before and after FUS-BBBO administration. […] The body weight of the additional group of mice was also recorded in a similar manner; however, unintentionally four mice were omitted from weighing on the day following the AADC-IKVAV (SEQ ID NO: 23) injection. Similarly, the mouse body weight was recorded before and after the intravenous injection of unmodified or engineered RLuc8.6, which is related to the study presented in FIG. 5.

Consider `N[C@@H](Cc1ccc(O)c(O)c1)C(=O)O` [L-DOPA, reference compound], for which, in the data set with mice (week 1, FUS-alone group), the “reduction in clockwise rotations after L-DOPA” value worked out at 53±18%. Further, in the data set with mice (week 1, control mice receiving FUS alone), the “reduction in counter-clockwise (ipsilateral) rotations after L-DOPA” value is on record as “not observed”. In addition, the “clockwise rotations after L-DOPA” value in the data set with mice (week two, FUS-alone control group) is recorded as “no significant effects”.

B1: AADC-IKVAV: aromatic-L-amino-acid decarboxylase (AADC) protein fused with short peptide IKVAV (SEQ ID NO: 23); CDS SEQ ID NO: 21 (protein)
chain: MRGSHHHHHHGMASMTGGQQMGRDLYDDDDKDPMNASEFRRRGKEMVDYMANYMEGIEGRQVYPDVEPGYLRPLIPAAAPQEPDTFEDIINDVEKIIMPGVTHWHSPYFFAYFPTASSYPAMLADMLCGAIGCIGFSWAASPACTELETVMMDWLGKMLELPKAFLNEKAGEGGGVIQGSASEATLVALLAARTKVIHRLQAASPELTQAAIMEKLVAYSSDQAHSSVERAGLIGGVKLKAIPSDGNFAMRASALQEALERDKAAGLIPFFMVATLGTTTCCSFDNLLEVGPICNKEDIWLHVDAAYAGSAFICPEFRHLLNGVEFADSFNFNPHKWLLVNFDCSAMWVKKRTDLTGAFRLDPTYLKHSHQDSGLITDYRHWQIPLGRRFRSLKMWFVFRMYGVKGLQAYIRKHVQLSHEFESLVRQDPRFEICVEVILGLVCFRLKGSNKVNEALLQRINSAKKIHLVPCHLRDKFVLRFAICSRTVESAHVQRAWEHIKELAADVLRAEREGGSGSSGGSGGSGGSGIKVAV
modifications: misc_feature 1..1602 Synthetic: AADC-IKVAV
On to B1, for which, in the data set with brain tissue, the “tissue damage or bleeding by hematoxylin staining” value was “didn't cause observable tissue damage or bleeding”. Also, the “numbers of GFAP+ astrocytes in targeted area vs contralateral site” value in the data set on GFAP+ astrocytes is “did not affect”. Further, the Weight loss in data set [1] (FUS-BBBO + protein i.v., RLuc8.6-IKVAV 104 mg/kg) was 10.3±0.5%; in data set [1] (protein i.v. alone without FUS), 13.8±0.8%.
